K0.5 data for one protein are collected here from PMC7315737, “The putative Escherichia coli dehydrogenase YjhC metabolises two dehydrated forms of N-acetylneuraminate produced by some sialidases” (Bioscience Reports, 2020).

Common to all, as to format: biochemical, Escherichia coli
Substrate in series [1]: NC(=O)c1ccc[n+]([C@@H]2O[C@H](COP(=O)(O)OP(=O)(O)OC[C@H]3O[C@@H](n4cnc5c(N)ncnc54)[C@H](O)[C@@H]3O)[C@@H](O)[C@H]2O)c1
Briefly: Neu5Ac formation versus NAD+ concentration, endpoint assay. The following applies: 1 mM 2,7-AN, 0.45 µM YjhC, 30 mM HEPES pH 7.5, 10 mM KCl, 1 mM MgCl2, 37°C, Ka is a half-activation constant, not an association constant, varied: cofactor.

Substrate in series [2]: [H][C@@]1([C@H](O)[C@H](O)CO)OC(C(=O)O)=C[C@H](O)[C@H]1NC(C)=O
Nature of the series: purified protein. The following applies: 50 µM NAD+, 30 mM HEPES pH 7.5, 10 mM KCl, 1 mM MgCl2, 37°C, sigmoidal, Hill coefficient 2.59.

Substrate in series [3]: CC(=O)N[C@H]1[C@H]2O[C@@](C(=O)O)(C[C@@H]1O)O[C@@H]2[C@H](O)CO
Briefly: purified protein. The following applies: 50 µM NAD+, 30 mM HEPES pH 7.5, 10 mM KCl, 1 mM MgCl2, 37°C, sigmoidal, Hill coefficient 2.20.

B1: YjhC (Escherichia coli K-12) (protein)
chain: MINYGVVGVGYFGAELARFMNMHDNAKITCVYDPENGENIARELQCINMSSLDALVSSKLVDCVIVATPNYLHKEPVIKAAKNKKHVFCEKPIALSYEDCVDMVKACKEAGVTFMAGHIMNFFNGVQYARKLIKEGVIGEILSCHTKRNGWENKQERLSWKKMKEQSGGHLYHHIHELDCVQHLLGEIPETVTMIGGNLAHSGPGFGNEDDMLFMTLEFPSGKLATLEWGSAFNWPEHYVIINGTKGSIKIDMQETAGSLRIGGQTKHFLVHETQEEDDDRRKGNMTSEMDGAIAYGHPGKKTPLWLASLIRKETLFLHNILCGAKPEEDYIDLLNGEAAMSAIATADAATLSRSQDRKVKISEIIKHTSVM
notes: full-length ORF from ASKA library in pCA24N, N-terminal His6-tag kept, expressed in E. coli BL21
As to B1, the K0.5 in series [1] was found to be 0.84 µM; in series [2] it was 0.30 mM; in series [3], 0.45 mM.
